Test results from patent US7481993B2, “Chelators for radioactively labeled conjugates comprising a stabilizing sidechain” (Schering AG, priority 2005, dated 2009).
“And” between values parts separate entries of the source, which are not always exact repeats. Equal entries are not always repeated. * marks the point of attachment. Mercaptoacetyl = O=C(CS)*; Bz = O=C(c1ccccc1)*

Assay: Cysteine challenge stability of ^99mTc chelator peptides
Type: physicochemical
Description: For the ^99mTc radiolabeling, a peptide as the TFA salt was dissolved in saline at 1 mg/mL and 100 μg (100 μL) was added to a ^99mTc placebo vial. The vial was reconstituted with 0.9 mL technetium ^99mTc sodium pertechnetate containing approximately 20 mCi and saline such that the final preparation volume was 1.1 mL. The vial was heated in a boiling water bath for 10 minutes and cooled at room temperature for 10 minutes.
The radiochemical purity (RCP) of the ^99mTc or ^188Re peptides was measured by gradient reversed phase HPLC using a Eurosphere-100 C18 HPLC column and 0.1% TFA mobile phases moderated with acetonitrile. Radioactive components were detected in the HPLC system using an in-line radiometric detector. Under the gradient conditions employed radiolabeled impurities (for example: ^99mTc glucoheptonate, ^99mTc edetate, and ^99mTc pertechnetate) eluted early (between 1 and 4 minutes), while the radiolabeled peptides eluted much later (between 8 and 20 minutes). In general, two isomeric radiometal complexes were observed, and the HPLC RCP was measured as the sum of the percent areas of the peaks corresponding to the two complexes. Radiochemical purity results for each of compounds are summarized in the examples that follow.
To ^99mTc radiolabelled peptide preparations described in Example 3 was added 150 μg of cysteine (approximately a 7-fold molar excess over peptide), and the preparations were stored at room temperature and monitored by HPLC for up to 12 hours. The amount of ^99mTc cysteine formed over time was noted. The initial HPLC analysis was started within 5 minutes of adding cysteine. In all cysteine challenge studies, a chelator compound containing a stabilizing sidechain was screened vs. the corresponding control chelator compound containing no sidechain. The relative amount of ^99mTc cysteine formed over time correlates inversely with the stability of the chelator (ie. less ^99mTc cysteine indicates higher chelator stability).
Several model chelator peptides were prepared with an N^1—N^2-Cys (N^1, N^2=independently any amino acid) amino acid sequence capable of complexing technetium as a triamide thiol chelator. Various stabilizing sidechains were substituted into the N^1—N^2-Cys chelator in two positions R1 and R2 as depicted in FIG. 4. The compounds were screened in the cysteine challenge experiment described in Example 4. Several experiments were conducted where 1-2 chelators were compared directly to a control chelator containing no stabilizing sidechain (compound GoC1 was also analyzed alone in a further study). Results in Table 5 represent % Peptide complexed to ^99mTc (ie. 100%−the amount of ^99mTc cysteine) vs. time.
Several model chelator peptides were prepared with an (β)Dap-N^2-Cys (N^2=any amino acid) amino acid sequence capable of complexing technetium as an amine diamide thiol chelator. This chelator is the chelator in the somatostatin peptides that were evaluated in Examples 5 and 6. Various stabilizing sidechains were substituted into the (β)Dap-N^2-Cys chelator in two positions R3 and R4 as depicted in FIG. 5. The compounds were screened in the cysteine challenge experiment described in Example 4. Several experiments were conducted where 1-2 chelators were compared directly to a control chelator containing no stabilizing sidechain. Results in Table 6 are the same as described in Example 7.
Two model chelator peptides were prepared with a ma-N^1—N^2 (Ma=mercaptoacetyl; N^1, N^2=independently any amino acid) amino acid sequence capable of complexing technetium as a triamide thiol chelator. This chelator has the thiol donor group at the N-terminus of the peptide. A stabilizing sidechain was substituted into the ma-N^1—N^2 chelator in position R5 as depicted in FIG. 6. The compounds were radiolabeled according to Example 3 with the exception that additional NaOH was added to bring the pH of the preparation up to pH 8.5. […]

[1] = N1-N2-Cys triamide thiol chelators, 150 μg cysteine, room temperature, Initial (within 5 minutes)
[2] = N1-N2-Cys triamide thiol chelators, cysteine challenge
[3] = Ma-N1-N2 triamide thiol chelators, preparation pH 8.5, cysteine challenge
[4] = Ma-N1-N2 triamide thiol chelators, preparation pH 8.5, cysteine challenge, Initial
[5] = (β)Dap-N2-Cys amine diamide thiol chelators, cysteine challenge
[6] = (β)Dap-N2-Cys amine diamide thiol chelators, cysteine challenge, Initial
[7] = (β)Dap-N2-Cys amine diamide thiol chelators, cysteine challenge, listed as Dap.GC

Row | Substance | % Peptide Complexed to ^99mTc Initial [1] | % Peptide Complexed to ^99mTc 2 h [2] | % Peptide Complexed to ^99mTc 4 h [2] | % Peptide Complexed to ^99mTc 6 h [2] | % Peptide Complexed to ^99mTc 8 h [2] | % Peptide Complexed to ^99mTc 10 h [2] | % Peptide Complexed to ^99mTc 12 h [2] | further results
1 | Ac-Tyr-Gly-Glu-Gly-Cys-Ala.amide (Ac-YGEGCA-NH2) | 91.4% | 84.1% | 78.1% | 73.3% | 67.4% | 60.1% |  | 
2 | Ma-Gly-Gly-Tyr-Ala.amide (Mercaptoacetyl-GGYA-NH2; SMILES C[C@H](NC(=O)[C@H](Cc1ccc(O)cc1)NC(=O)CNC(=O)CNC(=O)CS)C(N)=O) [Ma.GG, control chelator, no stabilizing sidechain] |  |  |  |  |  |  |  | % Peptide Complexed to ^99mTc 2 h [3]: 91.3%; % Peptide Complexed to ^99mTc 4 h [3]: 75.7%; % Peptide Complexed to ^99mTc 6 h [3]: 61.2%; % Peptide Complexed to ^99mTc 8 h [3]: 48.7%; % Peptide Complexed to ^99mTc 10 h [3]: 42.2%; % Peptide Complexed to ^99mTc 12 h [3]: 32.7%; % Peptide Complexed to ^99mTc Initial [4]: 100%
3 | Ac-Tyr-Gly-Gln-Gly-Cys-Ala.amide (Ac-YGQGCA-NH2) | 92.9% and 96.3% | 88.7% and 88.3% | 88.8% and 86.1% | 86.6% and 84.0% | 85.6% and 82.0% | 83.8% and 77.6% | 84.2% and 75.9% | 
4 | Bz-Gly-Gly-Gln-Cys-Ala.amide (Bz-GGQCA-NH2; SMILES C[C@H](NC(=O)[C@H](CS)NC(=O)[C@H](CCC(N)=O)NC(=O)CNC(=O)CNC(=O)c1ccccc1)C(N)=O) | 97.8% | 93.2% | 88.7% | 82.4% | 80.1% | 78.7% | 73.5% | 
5 | Ac-Tyr-Gly-(β)Dap(COCH2CH2NH2)-Gly-Cys-Ala.amide [Dap-Y.GC] |  |  |  |  |  |  |  | % Peptide Complexed to ^99mTc 2 h [5]: 84.6%; % Peptide Complexed to ^99mTc 4 h [5]: 84.1%; % Peptide Complexed to ^99mTc 6 h [5]: 82.9%; % Peptide Complexed to ^99mTc 8 h [5]: 80.7%; % Peptide Complexed to ^99mTc 10 h [5]: 80.0%; % Peptide Complexed to ^99mTc 12 h [5]: 77.2%; % Peptide Complexed to ^99mTc Initial [6]: 93.7%
6 | Ac-Tyr-Gly-Gly-Gly-Cys-Ala.amide (Ac-YGGGCA-NH2) [GGC2, control chelator, no stabilizing sidechain] | 90.1% and 92.0% and 95.7% and 93.6% | 70.7% and 80.7% and 79.3% and 81.0% and 77.8% | 61.8% and 72.0% and 70.5% and 73.3% and 67.5% | 57.1% and 65.7% and 65.6% and 61.0% and 60.4% | 46.2% and 61.0% and 57.8% and 53.0% and 54.7% | 39.1% and 59.0% and 55.1% and 48.0% and 50.2% | 33.3% and 57.2% and 44.5% and 41.2% and 46.6% | 
7 | Bz-Gly-(β)Dap-Met-Cys-Ala.amide [Dap.MC] |  |  |  |  |  |  |  | % Peptide Complexed to ^99mTc 2 h [5]: 95.4%; % Peptide Complexed to ^99mTc 4 h [5]: 89.8%; % Peptide Complexed to ^99mTc 6 h [5]: 92.6%; % Peptide Complexed to ^99mTc 8 h [5]: 91.6%; % Peptide Complexed to ^99mTc 10 h [5]: 88.4%; % Peptide Complexed to ^99mTc 12 h [5]: 89.7%; % Peptide Complexed to ^99mTc Initial [6]: 97.4%
8 | Ac-Tyr-Gly-Met-Gly-Cys-Ala.amide (Ac-YGMGCA-NH2) | 93.9% | 92.4% | 89.3% | 85.9% | 82.0% | 79.9% | 77.2% | 
9 | Ac-Tyr-Gly-Gly-(D)Orn-Cys-Ala.amide [GoC2] | 94.3% | 91.1% | 89.1% | 89.2% | 89.0% | 87.2% | 86.9% | 
10 | Ma-(D)Orn-Gly-Tyr-Ala.amide [Ma.oC] |  |  |  |  |  |  |  | % Peptide Complexed to ^99mTc 2 h [3]: 87.4%; % Peptide Complexed to ^99mTc 4 h [3]: 87.2%; % Peptide Complexed to ^99mTc 6 h [3]: 84.9%; % Peptide Complexed to ^99mTc 8 h [3]: 85.9%; % Peptide Complexed to ^99mTc 10 h [3]: 84.1%; % Peptide Complexed to ^99mTc 12 h [3]: 82.7%; % Peptide Complexed to ^99mTc Initial [4]: 100%
11 | Ac-Tyr-Gly-Gly-His-Cys-Ala.amide (Ac-YGGHCA-NH2) | 78.8% | 74.3% | 72.9% | 70.9% | 68.8% | 69.2% | 67.9% | 
12 | Ac-Tyr-Gly-Gly-Orn-Cys-Ala.amide [GOC] | 98.2% | 93.8% | 90.0% | 86.1% | 80.0% | 78.1% | 88.6% | 
13 | Ac-Tyr-Gly-(β)Dap-Gly-Cys-Ala.amide [Dap.GC2] |  |  |  |  |  |  |  | % Peptide Complexed to ^99mTc 2 h [5]: 67.7%; % Peptide Complexed to ^99mTc 4 h [5]: 55.1%; % Peptide Complexed to ^99mTc 6 h [5]: 49.6%; % Peptide Complexed to ^99mTc 8 h [5]: 44.7%; % Peptide Complexed to ^99mTc 10 h [5]: 38.0%; % Peptide Complexed to ^99mTc 12 h [5]: 38.7%; % Peptide Complexed to ^99mTc Initial [6]: 83.4%
14 | Bz-Gly-(β)Dap-Gly-Cys-Ala.amide [Dap.GC1] |  |  |  |  |  |  |  | % Peptide Complexed to ^99mTc 2 h [5]: 78.1%; % Peptide Complexed to ^99mTc 2 h [7]: 78.9%; % Peptide Complexed to ^99mTc 4 h [5]: 62.7%; % Peptide Complexed to ^99mTc 4 h [7]: 42.6%; % Peptide Complexed to ^99mTc 6 h [5]: 57.8%; % Peptide Complexed to ^99mTc 6 h [7]: 51.6%; % Peptide Complexed to ^99mTc 8 h [5]: 51.9%; % Peptide Complexed to ^99mTc 8 h [7]: 46.3%; % Peptide Complexed to ^99mTc 10 h [5]: 46.2%; % Peptide Complexed to ^99mTc 12 h [5]: 43.3%; % Peptide Complexed to ^99mTc 12 h [7]: 37.6%; % Peptide Complexed to ^99mTc Initial [6]: 81.7%
15 | Bz-Gly-Gly-Met-Cys-Ala.amide (Bz-GGMCA-NH2; SMILES CSCC[C@H](NC(=O)CNC(=O)CNC(=O)c1ccccc1)C(=O)N[C@@H](CS)C(=O)N[C@@H](C)C(N)=O) | 96.9% | 92.6% | 88.6% | 83.7% | 82.7% | 78.6% | 77.2% | 
